Target: T1, Cathepsin G
T1 sequence (P08311 21-244, species assumed, looked up): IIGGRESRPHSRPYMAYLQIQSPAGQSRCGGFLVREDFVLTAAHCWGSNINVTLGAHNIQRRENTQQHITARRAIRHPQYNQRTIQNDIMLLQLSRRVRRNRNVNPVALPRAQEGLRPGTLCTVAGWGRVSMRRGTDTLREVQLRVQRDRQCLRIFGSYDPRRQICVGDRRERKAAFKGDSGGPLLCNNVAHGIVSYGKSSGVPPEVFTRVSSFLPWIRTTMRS
Experiment: cell-based or functional assay

B1: recombinant Serpinb3a (mouse-derived), 6×His-tagged, produced in E. coli (other)
chain: HHHHHHMHLFAEATTKFTLELYRQLRESDNNIFYSPISMMTALAMLQLGAKGNTEKQIEKVLQFNETTKKTTEKSAHCHDEENVHEQFQKLMTQLNKSNDAYDLKAANSIYGAKGFPFVQTFLEDIKEYYQANVESLDFEHAAEESEKKINSWVESQTNGKIKDLFPNGSLNRSTIMVLVNAVYFKGQWNHKFDEKHTTEEKFWLNKNTSKPVQMMKQNIEFNFMFLEDVQAKIVEIPYKGKELSMIVLLPVEINGLKQLEEQLTADKLLEWTRAENMHMTELYLSLPRFKVDEKYDLPIPLEHMGMVDAFDPQKADFSGMSSTQGLVVSKVLHKSFVEVNEEGTEAAAATGVEVSLTSAQIAEDFCCDHPFLFFIIHRKTNSILFFGRISSP
With B1 as the binder, how does the “inhibitory stoichiometry (A/A0 (405 nm) vs. time)” value read?
Its value is 1 inhibitor:enzyme ratio.

Reference: patent US20260116925A1 (ARIZONA BOARD OF REGENTS ON BEHALF OF ARIZONA STATE …, published 2026)
